For one test, the target named is T1, Sir3 (464–978) (S. cerevisiae, UniProt P06701 464-978).
T1 construct: Purification according to Chang et al. (2003) and King et al. (2006); also called wild-type Sir3 fragment; source: E. coli BL21 Rosetta, purified (Ni-IDA, ion exchange, Superdex 200)
As to the kind of experiment: SEC; proteins mixed in equimolar ratio, 40 min on ice; Superdex 200 Increase 3.2/300, isocratic flow, 4°; fractions on SDS-PAGE, Coomassie. To be noted: both partners purified. For orientation: Size exclusion chromatography separates by hydrodynamic size, large species first.

The target of the next test is T2, Sir3-1067(464–978) (S. cerevisiae, UniProt P06701 464-978, K657A | K658A).
T2 construct: also called mutant Sir3 fragment; source: E. coli BL21 Rosetta, purified (Ni-IDA, ion exchange, Superdex 200)
T2 sequence (P06701 464-978 K657A/K658A): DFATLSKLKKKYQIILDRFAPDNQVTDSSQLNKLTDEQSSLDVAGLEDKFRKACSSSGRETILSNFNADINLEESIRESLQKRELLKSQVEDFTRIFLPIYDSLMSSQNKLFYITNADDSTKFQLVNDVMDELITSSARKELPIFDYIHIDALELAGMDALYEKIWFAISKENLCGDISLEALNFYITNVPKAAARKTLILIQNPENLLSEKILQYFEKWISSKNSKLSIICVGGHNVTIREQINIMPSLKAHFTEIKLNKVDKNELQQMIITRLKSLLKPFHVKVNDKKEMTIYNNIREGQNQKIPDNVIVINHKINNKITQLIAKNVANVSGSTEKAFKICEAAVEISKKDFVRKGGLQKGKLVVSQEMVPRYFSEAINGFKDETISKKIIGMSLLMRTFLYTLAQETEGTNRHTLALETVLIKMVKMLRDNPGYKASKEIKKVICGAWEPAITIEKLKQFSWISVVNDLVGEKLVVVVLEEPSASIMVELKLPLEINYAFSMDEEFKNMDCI
The description is as above. Conditions: both partners purified.

Numbering of substitutions follows the chain as printed. Numbers in names are those of the source.

T1 sequence (P06701 464-978): as the sequence (P06701 464-978 K657A/K658A) above, with A194K, A195K counted along it

B1: Sir4 (1217–1358) (domain or fragment, S. cerevisiae, UniProt P11978 1217-1358, looked up)
chain: SNTTEILTSVDVLGTHSQTGTQQSNMYTSTQKTELEIDNKDSVTECSKDMKEDGLSFVDIVLSKAASALDEKEKQLAVANEIIRSLSDEVMRNEIRITSLQGDLTFTKKCLENARSQISEKDAKINKLMEKDFQVNKEIKPY
notes: source: E. coli BL21 Rosetta, purified (Ni-NTA, Superdex 75)
For B1, in the test with Sir3 (464–978), the binding result is “binds”.

B2: Sir4-ETK (1217–1358) (domain or fragment, S. cerevisiae, UniProt P11978 1217-1358, looked up)
chain: B1 chain with E94V, T98S, K109R
notes: also called Sir4-E1310V, T1314S, K1325R coiled-coil fragment; source: E. coli BL21 Rosetta, purified (Ni-NTA, Superdex 75)
Consider B2, for which the binding result in the test with Sir3-1067(464–978) is listed as “binds”.

Values taken from PMC5386860, “Variants of the Sir4 Coiled-Coil Domain Improve Binding to Sir3 for Heterochromatin Formation in Saccharomyces cerevisiae” (G3: Genes|Genomes|Genetics, 2017).
